Measurements taken from US20250333496A1 (Novo Nordisk, published 2025).

Tests used:
[1] = target: T1, human IL-6 (mature hIL-6) (human, UniProt P05231 30-212); assay: SPR (format not stated)
T1 construct: also called the antigen

[2] = target: T1, human IL-6 (mature hIL-6); assay: cell-based or functional assay
[3] = target: T1, human IL-6 (mature hIL-6); assay: cell-based or functional assay; remark: listed apart in the source
[4] = target: T1, human IL-6 (mature hIL-6); assay: cell-based or functional assay; remark: listed apart in the source

T1 sequence (P05231 30-212): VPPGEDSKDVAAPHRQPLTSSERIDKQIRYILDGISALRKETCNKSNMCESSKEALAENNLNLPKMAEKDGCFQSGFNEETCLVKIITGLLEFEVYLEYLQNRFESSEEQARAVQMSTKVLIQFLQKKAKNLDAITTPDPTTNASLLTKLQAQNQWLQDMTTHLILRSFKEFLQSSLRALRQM

B1: Polypeptide_10 (VHH)
VHH: QVQLQESGGGLVQAGGSLRLSCTVSGRTFSTYAMGWFRQAPGKEREFVADINWNSDNIWYADSVKGRFTISRDNAKNVMYLQMNSLKPEDTAVYYCAADSYGVGGGKEEYYDSWGQGTQVTVSS
notes: VHH_2.10 with C-terminal His tag extension E1; also called [VHH_2.10]-E1
[1]
  Kd: 1.03 nM
[2]
  Reporter gene-assay [pM]: 114 pM

B2: Polypeptide_17 (VHH)
VHH: QVQLVESGGGLVQAGGSLRLSCTVSGRTFSTYAMGWFRQAPGKEREFVADINWNSDNIWYADSVKGRFTISRDNAKNVMYLQMNSLKPEDTAVYYCAADSYGVGGGKEEYYDSWGQGTQVTVSS
notes: VHH_2.17 with C-terminal His tag extension E1; also called [VHH_2.17]-E1
[1]
  Kd: 0.257 nM
[2]
  Reporter gene-assay [pM]: 84.1 pM

B3: Polypeptide_4 (VHH)
VHH: QVQLQESGGGLVQAGGSLRLSCTVSGRTFSTYAMGWFRQAPGKEREFVADINWNSDNLWYADSVKGRFTISRDNAKNTMYLQMNSLKPEDTAVYYCAVDSYGVGGGKPEYYDSWGQGTQVTVSS
notes: VHH_2.4 with C-terminal His tag extension E1; also called [VHH_2.4]-E1
[1]
  Kd: 1.46 nM
[2]
  Reporter gene-assay [pM]: 198 pM

B4: Polypeptide_13 (VHH)
VHH: EVQLVESGGGLVQAGGPLRLSCTVSGRTFSTYAMGWFRQAPGKEREFVADINWNSDNIWYADSVKGRFTISRDNAKNVMYLQMNSLKPEDTAVYYCAADSYGVGGGKEEYYDSWGQGTQVTVSS
notes: VHH_2.13 with C-terminal His tag extension E1; also called [VHH_2.13]-E1
[1]
  Kd: 0.001 nM
[2]
  Reporter gene-assay [pM]: 80.9 pM

B5: Polypeptide_15 (VHH)
VHH: QVQLQESGGGLVQAGGSLRLSCTASGGTFSEYAMAWFRQAPGKEREFVTDIGESGGTWYADSVKGRFTISRDNAKNTVYLQMNSLRPEDTAVYYCAADSYGVGGGAERYYDSWGQGTQVTVSS
notes: VHH_2.15 with C-terminal His tag extension E1; also called [VHH_2.15]-E1
[1]
  Kd: 0.001 nM
[2]
  Reporter gene-assay [pM]: 16.8 pM

B6: Polypeptide_35 (VHH)
VHH: QVQLVESGGGLVQAGGSLRLSCTASGGTFGEYAMAWFRQAPGKEREFVTDIGESGGTWYADSVKGRFTISRDNAKNTVYLQMNSLRPEDTAVYYCAADSYGVGGGAERYYDSWGQGTQVTVSS
notes: VHH_1.10 with C-terminal His tag extension E1; also called [VHH_1.10]-E1
[1]
  Kd: 0.001 nM
[2]
  Reporter gene-assay [pM]: 24.6 pM

B7: Polypeptide_3 (VHH)
VHH: QVQLQESGGGLVQAGGSLRLSCTTSGRTFSSYAMGWFRQAPGKEREFVADIGENADNRWYAHSVKGRFTISRDNAKNTVYLQMNSLKPEDTAVYYCAADRYGVGGGAQGYYDSWGQGTQVTVSS
notes: VHH_2.3 with C-terminal His tag extension E1; also called [VHH_2.3]-E1
[1]
  Kd: 0.872 nM
[2]
  Reporter gene-assay [pM]: 39.8 pM

B8: Polypeptide_16 (VHH)
VHH: EVQLVESGGGLVQPGGSLSLSCTASGRTFSSYAMGWFRQAPGKEREFVADIGENADNRWYAHSVKGRFTISRDNAKNTVYLQMNSLKPEDTAVYYCAADRYGVGGGAQGYYDSWGQGTQVTVSS
notes: VHH_2.16 with C-terminal His tag extension E1; also called [VHH_2.16]-E1
[1]
  Kd: 0.001 nM
[2]
  Reporter gene-assay [pM]: 52.4 pM

B9: Polypeptide_14 (VHH)
VHH: QLQLVESGGGSVQVGDSLRLSCTFSGRSFSSYAMGWFRQAPGKEREFVADIGENADNTWYAHSVKGRFTISRDNAKNTVYLQMNSLKPEDTAVYYCAADSYGVGGGAQGYYDSWGQGTQVTVSS
notes: VHH_2.14 with C-terminal His tag extension E1; also called [VHH_2.14]-E1
[1]
  Kd: 0.396 nM
[2]
  Reporter gene-assay [pM]: 72.9 pM

B10: Polypeptide_1 (VHH)
VHH: QVQLVESGGDLVQPGGSLRLSCTTSGRTFSSYAMGWFRQAPGKEREFVADIGENADNRWYAHSVKGRFTISRDNAKNTVYLQMNSLKPEDTAVYYCAADRYGVGGGAQGYYDSWGQGTQVTVSS
notes: VHH_2.1 with C-terminal His tag extension E1; also called [VHH_2.1]-E1
[1]
  Kd: 0.627 nM
[2]
  Reporter gene-assay [pM]: 47.4 pM

B11: Polypeptide_7 (VHH)
VHH: EVQLVESGGRWVQPGASLRLSCTTSGRTFSSYAMGWFRQAPGKEREFVADIGENADNRWYAHSVKGRFTISRDNAKNTVYLQMNSLKPEDTAVYYCAADRYGVGGGAQGYYDSWGQGTQVTVSS
notes: VHH_2.7 with C-terminal His tag extension E1; also called [VHH_2.7]-E1
[1]
  Kd: 0.631 nM
[2]
  Reporter gene-assay [pM]: 42.1 pM

B12: Polypeptide_33 (VHH)
VHH: EVQLVESGGGLVQPGGSLRLSCTTSGRTFSSYAVGWFRQAPGKEREFVADIGENADNTWYAHSVKGRFTISRDNAKNTVYLQMNSLKPEDTAVYYCAADSYGVGGGAQGYYDSWGQGTQVTVSS
notes: VHH_1.9 with C-terminal His tag extension E1; also called [VHH_1.9]-E1
[1]
  Kd: 0.358 nM
[2]
  Reporter gene-assay [pM]: 62.1 pM

B13: Polypeptide_12 (VHH)
VHH: QVQLVESGGGLVQAGGSLRLSCTTSGRTFSSYAMAWFRQAPGKDREFVADIGENSDNIWYADSVKGRFTISRDNAKNTILLQMNSLKPEDTAVYYCAADSYGVGGGKPEYYDSWGQGAQVTVSS
notes: VHH_2.12 with C-terminal His tag extension E1; also called [VHH_2.12]-E1
[1]
  Kd: 0.001 nM
[2]
  Reporter gene-assay [pM]: 77.4 pM

B14: Polypeptide_6 (VHH)
VHH: QVQLQESGGGLVQAGGSLRLSCTTSGRTFSDYAMAWFRQAPGKDREFVADIGTNSENTWYAESVKGRFTISRDNTKNTIYLQMNSLKPEDTAVYYCAADSYGVGGGKQEYYDSWGQGAQVTVSS
notes: VHH_2.6 with C-terminal His tag extension E1; also called [VHH_2.6]-E1
[1]
  Kd: 1.52 nM
[2]
  Reporter gene-assay [pM]: 73.4 pM

B15: Polypeptide_11 (VHH)
VHH: EVQLVESGGGLVQAGGSLRLSCTASGRSFSSYAMGWFRQAPGKEREFVADIGVNPDNTWYADSAKGRFTISRDNAKNTMYLQMNSLKPEDTAVYYCAADSYGVGGGAERYYDSWGQGTQVTVSS
notes: VHH_2.11 with C-terminal His tag extension E1; also called [VHH_2.11]-E1
[1]
  Kd: 0.0701 nM
[2]
  Reporter gene-assay [pM]: 98.2 pM

B16: Polypeptide_59 (VHH)
VHH: EVQLVESGGGLVQPGGSLKLSCTTSGRRFSEYAVGWFRQAPGKEREFVADIGEQAENTWYAESVLGRFTISRDDAKNTVYLEMNGLKPEDTAVYYCAADKYGVGGNAQGYYDSWGQGTQVTVSS
[3]
  IC50 (nM), STAT3-luc reporter gene assay: 0.043 nM
  Relative IC50 to Reference Polypeptide_29: 1.2 fold

B17: Polypeptide_60 (VHH)
VHH: EVQLVESGGGLVQPGGSLKLSCTTSGRRFSEYAVGWFRQAPGKEREFVADIGEQAENTWYAESVLGRFTISRDDAKNTVYLEMDSLKPEDTAVYYCAADKYGVGGNAQGYYDSWGQGTQVTVSS
[3]
  IC50 (nM), STAT3-luc reporter gene assay: 0.057 nM
  Relative IC50 to Reference Polypeptide_29: 1.7 fold

B18: Polypeptide_61 (VHH)
VHH: EVQLVESGGGLVQPGGSLKLSCTTSGRRFSEYAVGWFRQAPGKEREFVADIGEQAENTWYAESVLGRFTISRDDAKNTVYLEMDGLKPEDTAVYYCAADSYGVGGNAQGYYDSWGQGTQVTVSS
[3]
  IC50 (nM), STAT3-luc reporter gene assay: 0.054 nM
  Relative IC50 to Reference Polypeptide_29: 1.6 fold

B19: Polypeptide_62 (VHH)
VHH: EVQLVESGGGLVQPGGSLKLSCTTSGRRFSEYAVGWFRQAPGKEREFVADIGEQAENTWYAESVLGRFTISRDDAKNTVYLEMDGLKPEDTAVYYCAADKYGVGGGAQGYYDSWGQGTQVTVSS
[3]
  IC50 (nM), STAT3-luc reporter gene assay: 0.13 nM
  Relative IC50 to Reference Polypeptide_29: 3.8 fold

B20: Polypeptide_8 (VHH)
VHH: QVQLVESGGGLVQPGGSLRLSCAASGFTFSSYWMYWVRQAPGKGLEWVSGINTGGSTPDYADSVKGRFTISRDNAKNTLYLQMNSLRPEDTAVYYCAADTPRSFRLNHYSPLGQGTQVTVSS
notes: VHH_2.8 with C-terminal His tag extension E1; also called [VHH_2.8]-E1
[1]
  Kd: 0.816 nM
[2]
  Reporter gene-assay [pM]: 36.8 pM

B21: Polypeptide_5 (VHH)
VHH: QLQLVESGGGLVQPGGSLRLSCAASGFTFSNYWMYWVRQAPGKGLEWVSGINTGGSTPDYADSVKGRFTISRDNAKNTLYLQMNSLRPEDTAVYYCAADTPRVFRLDHYSPLGQGTQVTVSS
notes: VHH_2.5 with C-terminal His tag extension E1; also called [VHH_2.5]-E1
[1]
  Kd: 0.696 nM
[2]
  Reporter gene-assay [pM]: 23.2 pM

B22: Polypeptide_18 (VHH)
VHH: EVQLVESGGGLVQPGGSLRLSCAASGFTFSNYWMYWVRQAPGKGLEWVSGINTGGSTPDYADSVKGRFAISRDNAKNTLYLQMNSLRPEDTAVYYCAADTPRVFRLDHYSPLGQGTQVTVSS
notes: VHH_1.16 with C-terminal His tag extension E1; also called [VHH_1.16]-E1
[4]
  IC 50 (nM), reporter gene assay, 0% HSA: 0.02 nM
  IC 50 (nM), reporter gene assay, 1% HSA: 0.02 nM
[1]
  Kd: 0.705 nM
[2]
  Reporter gene-assay [pM]: 18.5 pM

B23: Polypeptide_9 (VHH)
VHH: QVQLVESGGGLVQPGGSLRLSCAASGFTFSNYWMYWVRQAPGKGLEWVSGIDTRGSTPDYADSVKGRFTISRDNAKSTFYLQMNSLRPEDTAVYYCATDTPRSFRLYHYVPLGQGTQVTVSS
notes: VHH_2.9 with C-terminal His tag extension E1; also called [VHH_2.9]-E1
[1]
  Kd: 0.903 nM
[2]
  Reporter gene-assay [pM]: 33.7 pM

B24: Polypeptide_2 (VHH)
VHH: EVQLVESGGGLVQPGGSLRLSCAASGFTFSNYWMYWVRQAPGKGLEWVSGINTGGSTPDYADSVKDRFTISRDNAKNTLYLQMNSLRPADTAVYYCAADTPRSFRLNHYAPLGQGTQVTVSS
notes: VHH_2.2 with C-terminal His tag extension E1; also called [VHH_2.2]-E1
[1]
  Kd: 1.31 nM
[2]
  Reporter gene-assay [pM]: 20.7 pM
